Reference: patent EP4053153A1

Assays:
[1] = biological target: human transferrin receptor (human) (UniProt P02786); assay: MST (Monolith NT.115); His-tag-dye-labelled protein, TfR titrated
[2] = biological target: mouse transferrin receptor (mouse) (UniProt Q62351); assay: as above
mouse transferrin receptor (mouse), sequence (Q62351 89-763 limits assumed): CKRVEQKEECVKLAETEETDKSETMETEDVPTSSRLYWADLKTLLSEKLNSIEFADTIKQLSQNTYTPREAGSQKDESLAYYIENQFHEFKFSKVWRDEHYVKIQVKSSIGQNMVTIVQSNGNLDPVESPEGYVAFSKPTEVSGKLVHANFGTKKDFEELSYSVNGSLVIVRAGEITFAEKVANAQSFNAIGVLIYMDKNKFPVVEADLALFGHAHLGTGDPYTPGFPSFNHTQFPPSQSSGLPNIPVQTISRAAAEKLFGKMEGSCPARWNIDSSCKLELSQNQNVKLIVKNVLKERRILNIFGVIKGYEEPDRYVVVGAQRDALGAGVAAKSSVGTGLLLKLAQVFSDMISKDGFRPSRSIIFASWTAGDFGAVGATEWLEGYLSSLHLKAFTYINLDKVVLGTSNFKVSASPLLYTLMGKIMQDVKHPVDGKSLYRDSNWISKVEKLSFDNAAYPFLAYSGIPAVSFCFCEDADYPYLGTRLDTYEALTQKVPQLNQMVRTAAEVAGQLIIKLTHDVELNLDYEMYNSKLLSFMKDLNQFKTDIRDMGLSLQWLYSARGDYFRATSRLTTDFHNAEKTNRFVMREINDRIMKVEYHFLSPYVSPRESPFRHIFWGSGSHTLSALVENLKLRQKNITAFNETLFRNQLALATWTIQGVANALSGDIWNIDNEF

human transferrin receptor (human), sequence (P02786 89-760 limits assumed): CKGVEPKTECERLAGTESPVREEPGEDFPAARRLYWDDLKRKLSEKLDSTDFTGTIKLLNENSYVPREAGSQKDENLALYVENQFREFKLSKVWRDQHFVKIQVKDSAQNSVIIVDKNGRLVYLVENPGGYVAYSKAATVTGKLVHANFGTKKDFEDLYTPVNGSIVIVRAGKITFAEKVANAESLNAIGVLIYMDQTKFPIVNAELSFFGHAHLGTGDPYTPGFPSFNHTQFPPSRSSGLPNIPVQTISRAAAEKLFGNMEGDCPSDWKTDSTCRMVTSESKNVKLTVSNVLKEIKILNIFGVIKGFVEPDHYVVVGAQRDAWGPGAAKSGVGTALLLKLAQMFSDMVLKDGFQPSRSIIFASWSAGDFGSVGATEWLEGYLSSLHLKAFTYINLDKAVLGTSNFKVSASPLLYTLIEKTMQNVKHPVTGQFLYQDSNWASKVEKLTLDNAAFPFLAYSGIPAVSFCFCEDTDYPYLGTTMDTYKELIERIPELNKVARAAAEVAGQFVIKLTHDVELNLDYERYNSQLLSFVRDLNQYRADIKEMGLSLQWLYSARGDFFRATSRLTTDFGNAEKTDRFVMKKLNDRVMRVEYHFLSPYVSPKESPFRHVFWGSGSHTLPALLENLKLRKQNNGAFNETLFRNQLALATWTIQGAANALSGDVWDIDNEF

| Substance | Kd [1] | Kd [2] |
| --- | --- | --- |
| N-AH1-huHF (from UniProt P02794 1-183) | 84.6 nM |  |
| N-gp100-huHF (from UniProt P02794 1-183) | 18.5 nM | 48.3 nM |
| DE-gp100-huHF (from UniProt P02794 1-183) | 9.78 nM | 30.5 nM |
